Data taken from patent US12545900B2, “CGAS/DNCV-like nucleotidyltransferases and uses thereof” (Dana-Farber Cancer Institute, Inc., priority 2018, dated 2026).
Entries after “also recorded” stand apart in the source; their conditions may differ.

What was measured:
[1] = target: T1, RECON (Mus musculus, UniProt Q8VC28); assay: Gel shift assay, radiolabeled nucleotide binding to RECON (native PAGE); details: radiolabeled nucleotide, 0, 4, 20, 100 μM protein
T1 construct: 6xHis-SUMO2 (N, cleaved yes); made in house; host or cells: E. coli BL21 CodonPlus (DE3)-RIL
T1 sequence (Q8VC28 1-323): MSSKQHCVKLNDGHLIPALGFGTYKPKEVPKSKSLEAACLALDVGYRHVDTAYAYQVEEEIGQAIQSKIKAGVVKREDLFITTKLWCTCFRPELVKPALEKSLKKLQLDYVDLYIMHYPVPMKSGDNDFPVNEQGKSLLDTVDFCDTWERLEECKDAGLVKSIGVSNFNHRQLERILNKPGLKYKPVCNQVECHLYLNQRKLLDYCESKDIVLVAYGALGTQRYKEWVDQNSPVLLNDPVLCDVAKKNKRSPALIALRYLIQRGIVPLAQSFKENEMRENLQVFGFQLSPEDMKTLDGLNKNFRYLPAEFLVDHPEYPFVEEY
Description: (§1) Briefly, recombinant Mus musculus STING or RECON, at 4, 20, or 100 μM was incubated with radiolabeled nucleotide (≤1 μM final concentration) in gel shift buffer for final conditions of 50 mM Tris pH 7.5, 60 mM KCl, 5 mM Mg (OAc) 2, and 1 mM DTT. Experiments were prepared by combining 1 μL of [α-^32P] labeled nucleotide, 2 uL 5x gel shift buffer, 5 μL of nuclease free water, and started by addition of 2 μL of recombinant protein in storage buffer.
(§2) After 30 min of equilibration, bound and free nucleotide were separated by 6% native PAGE in 0.5x TBE buffer. Gels were dried, and exposed to phosphorscreen prior to detection by Typhoon Trio Variable Mode Imager system (GE Healthcare). Gel shifts were quantified with ImageQuant® 5.2 and the % bound nucleotide was calculated as a proportion of total bound and free nucleotide for each lane, after subtraction of background signal. Gel shift data is representative of ≥2 independent experiments.

[2] = target: T2, CapE (Escherichia coli, UniProt Q6XGD4); assay: Phospholipase assay (EnzChek Phospholipase A1), CapE; type: biochemical, E. coli; details: 0.1, 1, and 10-fold molar ratios of nucleotide to phospholipase
T2 construct: made in house; host or cells: E. coli BL21 CodonPlus (DE3)-RIL
T2 sequence (Q6XGD4 whole entry): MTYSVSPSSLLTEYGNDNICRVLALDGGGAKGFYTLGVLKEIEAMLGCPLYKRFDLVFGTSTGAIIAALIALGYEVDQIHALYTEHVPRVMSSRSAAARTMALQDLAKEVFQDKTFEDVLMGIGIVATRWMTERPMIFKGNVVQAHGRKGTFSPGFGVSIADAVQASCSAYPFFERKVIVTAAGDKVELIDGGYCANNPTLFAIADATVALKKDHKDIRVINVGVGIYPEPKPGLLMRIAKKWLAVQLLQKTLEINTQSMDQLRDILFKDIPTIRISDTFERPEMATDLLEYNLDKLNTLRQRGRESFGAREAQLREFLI
Description: Patatin-like lipases were assayed as previously described (Gaspar & Machner (2014) Proc. Natl. Acad. Sci. U.S.A. 111:4560-4565). Briefly, CapV and CapE were produced recombinantly and catalytic activity was measured using the EnzChek® Phospholipase A1 Assay Kit (Invitrogen) according to the manufacturer's instructions. […] Assays were monitored fluorometrically Ex=460 nm/Em=515 nm, for 60 min at ˜90 s intervals at room temperature using a Biotek Synergy plate reader. Slope of each reaction in the linear range was used to calculate activity (Linear regression/straight line analysis, Prism 7.0c). A PLA1 standard curve from 20-0.02 U was used to interpolate phospholipase activity. Emission was monitored at a gain of 100 and/or 50 in order to extend the linear range of the assay.

[3] = target: T3, Mus musculus STING (Mus musculus, UniProt Q3TBT3); assay: Gel shift assay, radiolabeled nucleotide binding to STING (native PAGE); details: radiolabeled nucleotide, 0, 4, 20, 100 μM protein
T3 construct: 6xHis-SUMO2 (N, cleaved yes); made in house; host or cells: E. coli BL21 CodonPlus (DE3)-RIL
T3 sequence (Q3TBT3 138-378 limits assumed): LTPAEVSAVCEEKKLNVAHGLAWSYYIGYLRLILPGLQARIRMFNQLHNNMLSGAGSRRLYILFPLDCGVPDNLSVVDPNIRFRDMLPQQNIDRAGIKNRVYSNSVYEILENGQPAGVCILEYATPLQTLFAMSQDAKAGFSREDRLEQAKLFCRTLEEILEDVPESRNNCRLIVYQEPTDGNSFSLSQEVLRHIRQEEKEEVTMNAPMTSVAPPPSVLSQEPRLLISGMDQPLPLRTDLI
Description: as §1, §2

[4] = Second messenger synthesis assay ([α-32P] NTPs, TLC, MS/NMR of products); type: biochemical; details: for nucleotide product synthesized by the enzyme: purified enzyme with [α-32P] NTPs, TLC, products confirmed by MS/NMR
Description: Recombinant, candidate nucleotidyltransferase reactions combined 4 μL of 5× reaction buffer (250 mM CAPSO pH 9.4, […], 25 mM Mg (OAc) 2, 5 mM DTT), 2 μL of 10× NTPs, 1 uL [α-^32P] NTPs (˜1 uCi), 1 μL of candidate enzyme in storage buffer (˜20 μM), and a remaining volume of nuclease free water. The final reactions (50 mM CAPSO pH 9.4, 50 mM KCl, 5 mM Mg (OAc) 2, 1 mM DTT, ≤5% glycerol, 25-250 μM individual NTPs, trace amounts of [(-^32P] NTP, 1 μM enzyme) were started with addition of enzyme. Where indicated, pH was altered by replacing CAPSO buffer with appropriate buffer from “StockOptions pH Buffer Kit” (Hampton Research). When appropriate, Mg^2+ was replaced with an equimolar concentration of Mn^2+(MnCl2). cGAS reactions were always carried out with Tris at pH 7.5 and supplemented with 1 μM ISD45 dsDNA (Stetson & Medzhitov. (2006) Immunity 24:93-103). Reactions were carried out with 25 μM of each indicated NTP for FIGS. 1B, 3D, 8B, 8C, and 8D and for FIGS. 2C, 2G-2I, 5B, 5C, 10A-10D, 11A, 11B, and 13D. Reactions in all other figures were carried out with 250 μM NTP. The NTP/[α-^32P] NTPs in FIG. 1B are cGAS (ATP, GTP/[α-^32P] GTP), DncV (ATP, GTP/[α-^32P] ATP), DisA (ATP/[α-^32P] ATP), WspR (GTP/[xx-^32P] GTP), and CdnE (NTP/[{-^32P] NTP). P1 nuclease treated reactions in FIG. 1C and FIG. 11B are cGAS (ATP, GTP/[α-^32P] ATP), DncV (ATP, GTP/[α-^32P] GTP), CdnE (ATP, UTP/[<- ^32P] ATP), and Lp-CdnE02 (CTP, UTP/ [α-^32P] UTP) . Where indicated, nonhydrolyzable nucleotides [Ap (c) pp, Gp (c) pp, Cp (c) pp, or Up (n) pp (Jena)] were used at 25 μM.
Reactions were incubated for 2 h at 37° C. prior to analysis unless otherwise stated. Reactions were stopped by addition of 5 U of alkaline phosphatase (New England Biolabs) which removed triphosphates on remaining NTPs and converted the remaining nucleotide [α-^32P] to ^32Pi and allowed visualization of cyclic nucleotides. After a >20 min incubation, […] (PEI-cellulose) or 1 uL (silica) of the reaction was spotted 1.5 cm from the bottom of the TLC plate, spaced 0.8 cm apart. 20 cm×20 cm F-coated PEI-cellulose TLCs (Millipore) were developed in 1.5 M KH2PO4 (pH 3.8) until the buffer front reacted ˜1 cm from the top; 20 cm×10 cm F-coated silica HP-TLC plates (Millipore) were developed in 11:7:2 1-propanol: NH4OH: H2O in a chemical fume hood for 1 hour. Plates were dried and exposed to phosphorscreen prior to detection by Typhoon™ Trio Variable Mode Imager system (GE Healthcare). All TLC data are representative of ≥3 independent experiments, with the exception of the biochemical screen which represents ≥2 independent experiments.
Cyclic nucleotides were produced in large scale using previously described methods (Sureka et al. (2014) Cell 158:1389-1401) with the following changes. Small-scale second messenger synthesis assays were scaled up to […] reactions with final conditions of 50 mM CAPSO pH 9.4, 12.5-50 mM KCl, 5-20 mM Mg (OAc) 2, 1 mM DTT, ≤5% glycerol, 250 μM individual NTPs, and 1 μM enzyme. A 20 μL aliquot of the larger reaction was removed and [cx-^32P] NTP were added to follow reaction progress. Reactions were incubated for 24 hours at which time 5 U of CIP/mL of reaction was added and the reaction was further incubated for 2-24 hours. Reactions were heat inactivated at 65° C. for 30 min, diluted to a final salt concentration of 12.5 mM, and purified by anion exchange chromatography and FPLC (either 1 mL Q-Sepharose® column, or Mono Q 4.6/100 PE, GE Healthcare). The column was washed with water and 1 mL fractions were collected during a gradient elution with 2M ammonium acetate. Fractions harboring the appropriate product were identified by A260 and silica TLC, visualizing the nucleotide products by UV-shadowing, imaging using a handheld camera, and comparing migration to paired, radiolabeled reactions. Selected fractions were concentrated by evaporation and re-suspended in 30 μL of nuclease free water for MS. […]

For `Nc1nc2c(ncn2[C@@H]2O[C@@H]3COP(=O)(O)O[C@H]4[C@@H](O)[C@H](n5cnc6c(N)ncnc65)O[C@@H]4COP(=O)(O)O[C@H]3[C@H]2O)c(=O)[nH]1` [3′3′ cGAMP, 3′-5′/3′-5′ cGAMP, reference compound], the “recognition/binding of nucleotide by RECON” value [1] was “detected by both STING and RECON” and the “activation of CapE phospholipase activity” value [2] was “exquisite specificity of CapE insulates this circuit from 3′3′ cGAMP”.

For `Nc1ncnc2c1ncn2[C@@H]1O[C@@H]2COP(=O)(O)O[C@H]3[C@@H](O)[C@H](n4cnc5c(N)ncnc54)O[C@@H]3COP(=O)(O)O[C@H]2[C@H]1O` [c-di-AMP, cyclic di-AMP, reference compound], the “recognition/binding of nucleotide by RECON” value [1] was “detected by both STING and RECON”.

In the case of `Nc1nc2c(ncn2[C@@H]2O[C@@H]3COP(=O)(O)O[C@H]4[C@@H](O)[C@H](n5cnc6c(=O)[nH]c(N)nc65)O[C@@H]4COP(=O)(O)O[C@H]3[C@H]2O)c(=O)[nH]1` [c-di-GMP, cyclic di-GMP, reference compound], the “recognition/binding of nucleotide by STING” value [3] is reported as “detected by STING”.

B1: CdnE: E. coli cGAS/DncV-like nucleotidyltransferase, SEQ ID NO: 166 (protein, listed as Escherichia coli)
chain: MGIPESQLDTWSHQGSIAQSASTYSIIKNALESANTKYHGKNFKVFLQGSYGNDTNIYAESDVDVVICLDDVYYSDLTQLSPEDKDAYDRAFVPATYSYTQFKQDVLEALTERFGSDVKVGDKAIVVAANGSRRKADVIASMQFRRYWKFKGHYDSQYDEGICFFNGAGERIANYPKQHSENLTLKHQASNKWLKPMVRVLKNLRSKLIADGKLKSGLAPSYYLEGLLYNVPNEKFGTSYADCFVNAMNWIQTEADKDKLVCANEQYYLLWEGTHTSWEKADAEAFIDAAIKMWNEW
With B1 the “requirement of a cognate stimulus for enzyme activity” value [4] was “constitutively active and does not require a cognate stimulus”, the “nucleotide product synthesized by the enzyme” value (“nucleotide product synthesized” for short) [4] was “cyclic UMP-AMP (cUMP-AMP)” and the “nucleotide product synthesized” value ([4]; listed as wild-type CdnE) was “robustly synthesized cUMP-AMP”.

B2: Em-CdnE: CdnE from Elizabethkingia meningoseptica, SEQ ID NO: 201 (protein, listed as Elizabethkingia meningoseptica)
chain: MNFSEQQLINWSRPVSTTEDLKCQNAITQITAALRAKFGNRVTIFLQGSYRNNTNVRQNSDVDIVMRYDDAFYPDLQRLSESDKAIYNAQRTYSGYNFDELKADTEEALRNVFTTSVERKNKCIQVNGNSNRITADVIPCFVLKRFSTLQSVEAEGIKFYSDDNKEIISFPEQHYSNGTEKTNQTYRLYKRMVRILKVVNYRLIDDGEIADNLVSSFFIECLVYNVPNNQFISGNYTQTLRNVIVKIYEDMKNNADYTEVNRLFWLFSNRSPRTRQDALGFMQKCWNYLGYQ
With B2 the “nucleotide product synthesized” value [4] was “robustly synthesized cyclic dipurines; also recorded: synthesis of c-di-AMP, cGAMP, and c-di-GMP”.

B3: Rm-CdnE: CdnE homolog from Rhodothermus marinus, SEQ ID NO: 198 (protein, listed as Rhodothermus marinus)
chain: MPVPESQLERWSHQGATTTAKKTHESIRAALDRYKWPKGKPEVYLQGSYKNSTNIRGDSDVDVVVQLNSVFMNNLTAEQKRRFGFVKSDYTWNDFYSDVERALTDYYGASKVRRGRKTLKVETTYLPADVVVCIQYRKYPPNRKSEDDYIEGMTFYVPSEDRWVVNYPKLHYENGAAKNQQTNEWYKPTIRMFKNARTYLIEQGAPQDLAPSYFLECLLYNVPDSKFGGTFKDTFCSVINWLKRADLSKFRCQNGQDDLFGEFPEQWSEEKARRFLRYMDDLWTGWGQ
In the case of B3, the “nucleotide product synthesized” value [4] is reported as “synthesized cUMP-AMP”.

B4: Ec-CdnD02: CD-NTase from Enterobacter cloacae, SEQ ID NO: 112 (protein, listed as Enterobacter cloacae)
chain: MELQPQFNEFLANIRPTDTQKEDWKSGARTLRERLKNFEPLKEIVVSTFLQGSIRRSTAIRPLGDKRPDVDIVVVTNLDHTRMSPTDAMDLFIPFLEKYYPGKWETQGRSFGITLSYVELDLVITAIPESGAEKSHLEQLYKSESVLTVNSLEEQTDWRLNKSWTPNTGWLSESNSAQVEDAPASEWKAHPLVLPDREKNEWGRTHPLAQIRWTAEKNRLCNGHYINLVRAVKWWRQQNSEDLPKYPKGYPLEHLIGNALDNGTTSMAQGLVQLMDTFLSRWAAIYNQKSKPWLSDHGVAEHDVMARLTAEDFCSFYEGIASAAEIARNALASEEPQESAQLWRQLFGSKFPLPGPQGGDRNGGFTTPSKPAEPQKTGRFA
In the case of B4, the “nucleotide product synthesized” value [4] is reported as “cyclic AMP-AMP-GMP (cAAG), a cyclic trinucleotide, is the major product”.
